This is an account of results in publication PMC6359974.

The experiment concerns the target polymerized MTs of COV362 lysate (taxol-treated) (human (endogenous in COV362)) (UniProt P68363). Briefly: co-sedimentation.
Chain of UniProt P68363 (P68363 whole entry, chain 1 of 2): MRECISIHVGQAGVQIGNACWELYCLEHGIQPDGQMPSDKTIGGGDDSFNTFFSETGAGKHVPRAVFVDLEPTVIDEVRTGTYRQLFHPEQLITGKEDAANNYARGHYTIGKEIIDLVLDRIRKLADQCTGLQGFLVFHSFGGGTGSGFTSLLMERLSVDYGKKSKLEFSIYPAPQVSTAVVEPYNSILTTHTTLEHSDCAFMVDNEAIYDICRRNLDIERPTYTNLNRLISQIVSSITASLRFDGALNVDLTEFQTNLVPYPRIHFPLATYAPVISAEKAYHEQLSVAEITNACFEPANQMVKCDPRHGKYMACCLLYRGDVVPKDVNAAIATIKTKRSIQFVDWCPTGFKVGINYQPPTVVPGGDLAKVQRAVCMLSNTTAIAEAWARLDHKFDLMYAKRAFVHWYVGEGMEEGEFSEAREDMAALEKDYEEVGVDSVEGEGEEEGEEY
Chain of UniProt P68363 (P07437 whole entry, chain 2 of 2, further chain): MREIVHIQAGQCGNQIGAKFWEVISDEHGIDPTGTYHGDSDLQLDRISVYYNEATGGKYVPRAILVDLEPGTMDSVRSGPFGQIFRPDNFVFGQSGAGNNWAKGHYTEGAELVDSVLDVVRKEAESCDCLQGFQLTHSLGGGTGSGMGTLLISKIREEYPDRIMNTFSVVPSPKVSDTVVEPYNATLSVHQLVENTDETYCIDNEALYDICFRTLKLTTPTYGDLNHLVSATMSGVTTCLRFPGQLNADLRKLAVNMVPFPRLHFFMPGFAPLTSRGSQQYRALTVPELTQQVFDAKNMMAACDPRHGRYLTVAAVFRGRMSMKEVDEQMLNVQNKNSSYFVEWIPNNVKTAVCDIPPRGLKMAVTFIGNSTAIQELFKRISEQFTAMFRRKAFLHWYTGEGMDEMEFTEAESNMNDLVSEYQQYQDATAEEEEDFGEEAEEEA

B1: UNC-45A (endogenous, COV362 cells) (natural protein)
chain: MTVSGPGTPEPRPATPGASSVEQLRKEGNELFKCGDYGGALAAYTQALGLDATPQDQAVLHRNRAACHLKLEDYDKAETEASKAIEKDGGDVKALYRRSQALEKLGRLDQAVLDLQRCVSLEPKNKVFQEALRNIGGQIQEKVRYMSSTDAKVEQMFQILLDPEEKGTEKKQKASQNLVVLAREDAGAEKIFRSNGVQLLQRLLDMGETDLMLAALRTLVGICSEHQSRTVATLSILGTRRVVSILGVESQAVSLAACHLLQVMFDALKEGVKKGFRGKEGAIIVDPARELKVLISNLLDLLTEVGVSGQGRDNALTLLIKAVPRKSLKDPNNSLTLWVIDQGLKKILEVGGSLQDPPGELAVTANSRMSASILLSKLFDDLKCDAERENFHRLCENYIKSWFEGQGLAGKLRAIQTVSCLLQGPCDAGNRALELSGVMESVIALCASEQEEEQLVAVEALIHAAGKAKRASFITANGVSLLKDLYKCSEKDSIRIRALVGLCKLGSAGGTDFSMKQFAEGSTLKLAKQCRKWLCNDQIDAGTRRWAVEGLAYLTFDADVKEEFVEDAAALKALFQLSRLEERSVLFAVASALVNCTNSYDYEEPDPKMVELAKYAKQHVPEQHPKDKPSFVRARVKKLLAAGVVSAMVCMVKTESPVLTSSCRELLSRVFLALVEEVEDRGTVVAQGGGRALIPLALEGTDVGQTKAAQALAKLTITSNPEMTFPGERIYEVVRPLVSLLHLNCSGLQNFEALMALTNLAGISERLRQKILKEKAVPMIEGYMFEEHEMIRRAATECMCNLAMSKEVQDLFEAQGNDRLKLLVLYSGEDDELLQRAAAGGLAMLTSMRPTLCSRIPQVTTHWLEILQALLLSSNQELQHRGAVVVLNMVEASREIASTLMESEMMEILSVLAKGDHSPVTRAAAACLDKAVEYGLIQPNQDGE
As to B1, the percent of UNC-45A bound to MTs came out at 100%.
